Literature values, collected in article PMC5605561.

Molecular target: B2R (Homo sapiens) (UniProt P30411)
Chain of UniProt P30411 (P30411 whole entry): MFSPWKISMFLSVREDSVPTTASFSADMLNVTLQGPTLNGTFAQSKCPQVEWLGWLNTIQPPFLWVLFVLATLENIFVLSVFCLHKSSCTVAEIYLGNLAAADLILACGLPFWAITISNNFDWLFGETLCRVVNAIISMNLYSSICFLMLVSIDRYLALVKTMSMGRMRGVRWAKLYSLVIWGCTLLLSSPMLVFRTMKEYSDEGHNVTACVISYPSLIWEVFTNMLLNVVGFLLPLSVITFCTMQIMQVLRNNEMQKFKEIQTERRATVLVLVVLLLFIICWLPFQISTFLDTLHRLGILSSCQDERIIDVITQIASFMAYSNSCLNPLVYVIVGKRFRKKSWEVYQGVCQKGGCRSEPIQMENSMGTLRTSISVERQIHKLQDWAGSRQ

- Kd: 10 nM
Substance: bradykinin bradykinin (from UniProt P01042)
